Read-outs that look alike come from different tables or passages of the source.
What was measured:
[1] = target: T1, CDH6-N573A (human, UniProt P55285 54-615); assay: ELISA on coated CDH6-N573A, O.D.
T1 sequence: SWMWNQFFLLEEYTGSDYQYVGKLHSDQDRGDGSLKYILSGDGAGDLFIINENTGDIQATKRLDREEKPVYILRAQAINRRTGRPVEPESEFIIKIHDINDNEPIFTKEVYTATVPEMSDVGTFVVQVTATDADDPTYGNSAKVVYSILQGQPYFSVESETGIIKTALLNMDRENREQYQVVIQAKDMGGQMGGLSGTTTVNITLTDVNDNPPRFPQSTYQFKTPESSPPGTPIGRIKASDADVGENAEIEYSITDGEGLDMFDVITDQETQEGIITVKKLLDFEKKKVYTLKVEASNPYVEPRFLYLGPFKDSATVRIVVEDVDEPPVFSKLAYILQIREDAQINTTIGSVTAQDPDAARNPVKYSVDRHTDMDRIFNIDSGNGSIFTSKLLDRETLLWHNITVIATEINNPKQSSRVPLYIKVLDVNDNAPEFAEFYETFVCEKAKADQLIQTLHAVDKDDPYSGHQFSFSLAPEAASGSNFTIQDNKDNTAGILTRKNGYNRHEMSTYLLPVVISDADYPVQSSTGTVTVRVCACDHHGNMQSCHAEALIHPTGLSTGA

[2] = target: T2, human CDH6 expressed on cells (human, UniProt P55285 54-790); assay: FACS histogram on OVCAR3 cells
T2 sequence: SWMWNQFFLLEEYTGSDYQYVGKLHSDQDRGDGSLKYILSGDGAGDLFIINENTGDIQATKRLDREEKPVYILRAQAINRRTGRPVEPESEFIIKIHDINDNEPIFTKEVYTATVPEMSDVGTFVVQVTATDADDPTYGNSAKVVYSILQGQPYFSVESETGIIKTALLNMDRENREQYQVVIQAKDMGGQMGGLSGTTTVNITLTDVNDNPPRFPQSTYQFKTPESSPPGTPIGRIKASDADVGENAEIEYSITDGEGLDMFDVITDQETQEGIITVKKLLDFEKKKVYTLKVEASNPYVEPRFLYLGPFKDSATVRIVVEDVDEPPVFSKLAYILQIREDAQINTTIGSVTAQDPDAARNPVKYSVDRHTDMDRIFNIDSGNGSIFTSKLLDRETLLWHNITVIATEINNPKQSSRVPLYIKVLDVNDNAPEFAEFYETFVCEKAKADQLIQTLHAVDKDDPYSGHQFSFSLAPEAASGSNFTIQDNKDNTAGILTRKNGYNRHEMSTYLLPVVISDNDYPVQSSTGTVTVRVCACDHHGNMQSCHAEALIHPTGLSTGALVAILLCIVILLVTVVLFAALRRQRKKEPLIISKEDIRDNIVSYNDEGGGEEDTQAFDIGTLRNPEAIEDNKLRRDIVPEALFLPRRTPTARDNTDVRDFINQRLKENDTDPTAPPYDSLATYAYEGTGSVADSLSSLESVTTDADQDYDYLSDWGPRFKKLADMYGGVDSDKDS

[3] = target: T3, CDH6 wt (human, UniProt P55285 54-615, limits assumed); assay: ELISA on coated CDH6-wt, O.D.
T3 sequence: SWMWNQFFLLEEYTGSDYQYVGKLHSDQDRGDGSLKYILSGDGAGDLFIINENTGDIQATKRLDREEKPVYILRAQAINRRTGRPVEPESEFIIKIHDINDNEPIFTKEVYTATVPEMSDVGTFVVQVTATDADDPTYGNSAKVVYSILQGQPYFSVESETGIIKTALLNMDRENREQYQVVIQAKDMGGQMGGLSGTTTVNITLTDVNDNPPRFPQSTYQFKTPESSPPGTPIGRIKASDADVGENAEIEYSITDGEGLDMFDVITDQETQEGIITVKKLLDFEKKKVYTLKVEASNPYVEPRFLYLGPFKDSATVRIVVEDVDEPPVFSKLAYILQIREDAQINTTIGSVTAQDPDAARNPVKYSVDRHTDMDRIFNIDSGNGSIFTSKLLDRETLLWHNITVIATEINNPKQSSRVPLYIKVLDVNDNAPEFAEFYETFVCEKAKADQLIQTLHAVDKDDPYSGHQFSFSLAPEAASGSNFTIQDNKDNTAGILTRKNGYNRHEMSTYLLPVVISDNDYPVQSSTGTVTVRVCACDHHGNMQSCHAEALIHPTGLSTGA

[4] = target: T2, human CDH6 expressed on cells; assay: FACS histogram on OVCAR8-CDH6+ cells
[5] = target: T1, CDH6-N573A; assay: ELISA on coated CDH6-N573A, O.D.; remark: listed apart in the source
[6] = target: T4, CDH6-D574A (human, UniProt P55285 54-615); assay: ELISA on coated CDH6-D574A, O.D.
T4 sequence: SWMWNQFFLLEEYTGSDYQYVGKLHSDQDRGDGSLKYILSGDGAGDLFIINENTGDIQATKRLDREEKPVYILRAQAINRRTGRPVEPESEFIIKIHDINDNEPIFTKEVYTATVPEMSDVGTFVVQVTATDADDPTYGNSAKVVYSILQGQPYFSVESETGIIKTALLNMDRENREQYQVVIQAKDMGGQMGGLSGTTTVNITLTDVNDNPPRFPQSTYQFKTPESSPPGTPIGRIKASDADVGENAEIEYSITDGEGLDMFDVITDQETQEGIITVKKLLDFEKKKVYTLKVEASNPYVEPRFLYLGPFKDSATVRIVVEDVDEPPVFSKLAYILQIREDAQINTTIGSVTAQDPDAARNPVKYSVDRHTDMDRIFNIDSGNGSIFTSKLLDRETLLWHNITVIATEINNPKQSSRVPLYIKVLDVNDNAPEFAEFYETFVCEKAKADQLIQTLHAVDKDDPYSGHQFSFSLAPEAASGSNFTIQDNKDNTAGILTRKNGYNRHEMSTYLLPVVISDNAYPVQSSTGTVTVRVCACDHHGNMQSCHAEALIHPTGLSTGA

[7] = target: T5, CDH6-Y575A (human, UniProt P55285 54-615); assay: ELISA on coated CDH6-Y575A, O.D.
T5 sequence: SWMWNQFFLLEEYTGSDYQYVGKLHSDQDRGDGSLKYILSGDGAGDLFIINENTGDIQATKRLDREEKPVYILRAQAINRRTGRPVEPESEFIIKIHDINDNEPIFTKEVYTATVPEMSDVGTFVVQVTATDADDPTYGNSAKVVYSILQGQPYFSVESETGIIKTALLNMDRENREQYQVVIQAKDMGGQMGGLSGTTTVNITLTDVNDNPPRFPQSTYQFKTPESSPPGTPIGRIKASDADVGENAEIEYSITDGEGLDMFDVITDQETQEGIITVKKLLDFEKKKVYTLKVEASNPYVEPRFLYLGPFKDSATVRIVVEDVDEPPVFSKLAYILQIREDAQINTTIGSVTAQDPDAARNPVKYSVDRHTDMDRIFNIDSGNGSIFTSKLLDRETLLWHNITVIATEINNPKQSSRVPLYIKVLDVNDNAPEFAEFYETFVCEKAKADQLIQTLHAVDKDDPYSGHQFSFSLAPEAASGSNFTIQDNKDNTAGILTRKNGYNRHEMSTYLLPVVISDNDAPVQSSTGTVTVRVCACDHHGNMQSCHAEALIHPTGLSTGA

[8] = target: T3, CDH6 wt; assay: ELISA on coated CDH6-wt, O.D.; remark: listed apart in the source
[9] = target: T4, CDH6-D574A; assay: ELISA on coated CDH6-D574A, O.D.; remark: listed apart in the source
[10] = target: T1, CDH6-N573A; assay: ELISA on coated CDH6-N573A, O.D.; remark: listed apart in the source
[11] = target: T3, CDH6 wt; assay: ELISA on coated CDH6-wt, O.D.; remark: listed apart in the source
[12] = target: T5, CDH6-Y575A; assay: ELISA on coated CDH6-Y575A, O.D.; remark: listed apart in the source

With human isotype control IgG (antibody) the EC50 [1] was 0.545 µM, the Geom. Mean Fluorescence [2] was 57.9 and the EC50 [3] was 0.3 µM. For the same molecule, the Geom. Mean Fluorescence [4] was 54.2.

non-binding control ADC (antibody) showed a Geom. Mean Fluorescence [2] of 60.4 and a Geom. Mean Fluorescence [4] of 56.5.

B1: NOV0710 (antibody, human IgG1, kappa, V domains shown)
VH: QVQLLESGGGLVQPGGSLRLSCAASGFTFSSYAMSWVRQAPGKGLEWVSVIRSSGSSTYYADSVKGRFTISRDNSKNTLYLQMNSLRAEDTAVYYCARGGGYFDYWGQGTLVTVSS
VL: DIQMTQSPSSLSASVGDRVTITCRASQSISLWLNWYQQKPGKAPKLLIYAASTLQSGVPSRFSGSGSGTDFTLTISSLQPEDFATYYCQQYYTSPYTFGQGTKVEIKR
B1 was tested, and the EC50 [5] was 459 µM, the EC50 [6] was 151 µM and the EC50 [7] was 0.287 µM. For the same molecule, the EC50 [8] was 0.2 µM.

B2: NOV0720 (antibody, human IgG1, lambda, V domains shown)
VH: QVQLQQSGPGLVKPSQTLSLTCAISGDSVSSNSAGWNWIRQSPSRGLEWLGRIYYRSKWYNDYAVSVKSRITINPDTSKNQFSLQLNSVTPEDTAVYYCAREKYTVSFYDFFDYWGQGTLVTVSS
VL: DIELTQPPSVSVSPGQTASITCSGDNIGSMTAHWYQQKPGQAPVLVIYDKNERPSGIPERFSGSNSGNTATLTISGTQAEDEADYYCQSWDDSYNSVVFGGGTKLTVLG
For B2, the EC50 [9] was 7.58 µM, the EC50 [10] was 6.74 µM and the EC50 [11] was 7.11 µM. The EC50 [12] was 7.2 µM.
